The source of these data is patent publication US11473089B2, “Aptamer for ADAMTS5 and use for aptamer for ADAMTS5” (RIBOMIC INC., priority 2017, dated 2022).

The labels stand for the following.
T1: ADAMTS5 (Homo sapiens, UniProt Q9UNA0)
T1 construct: purchased R&D systems
T1 sequence (Q9UNA0 262-930): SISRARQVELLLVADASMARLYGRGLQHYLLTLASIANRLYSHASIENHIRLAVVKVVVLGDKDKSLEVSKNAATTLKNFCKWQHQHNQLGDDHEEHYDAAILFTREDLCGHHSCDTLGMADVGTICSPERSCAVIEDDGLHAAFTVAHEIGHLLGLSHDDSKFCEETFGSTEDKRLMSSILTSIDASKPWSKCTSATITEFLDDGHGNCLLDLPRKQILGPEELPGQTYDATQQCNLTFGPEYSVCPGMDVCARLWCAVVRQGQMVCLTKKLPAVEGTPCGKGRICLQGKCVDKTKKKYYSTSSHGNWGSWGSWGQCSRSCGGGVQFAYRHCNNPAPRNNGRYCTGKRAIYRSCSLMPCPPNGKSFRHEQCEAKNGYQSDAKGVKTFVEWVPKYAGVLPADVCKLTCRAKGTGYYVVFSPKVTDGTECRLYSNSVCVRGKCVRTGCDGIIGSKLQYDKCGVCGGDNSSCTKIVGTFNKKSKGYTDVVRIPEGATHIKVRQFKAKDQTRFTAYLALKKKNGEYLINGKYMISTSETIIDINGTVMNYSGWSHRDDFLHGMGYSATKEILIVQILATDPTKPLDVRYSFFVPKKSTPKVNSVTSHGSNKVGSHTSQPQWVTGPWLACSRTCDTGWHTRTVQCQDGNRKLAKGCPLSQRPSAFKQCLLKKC

B1: 1 (nucleic acid)
chain: GGGUACGACCGUCGUACGAUUGGGGCCUCCACAGCUGCUCAGCUUGGACUAAACCAAUAAGAGACUAACGCCUAGCGUAC
modifications: 2'-fluoro at CU, RNA at AG, backbone not given here
B2: 20 (nucleic acid)
chain: GGGACAUGCGUAACUGUAUAGGGGCCUCCGCAGCUAUUCAGCUCGGACAUAAACCAUACAGUCCAGAUCGAGCA
modifications: aptamer; 2'-fluoro at CU, RNA at AG, backbone not given here
B3: 19 (nucleic acid)
chain: GGGACAUGCGUAACUUGAUAGGGGCCUCCACAGCUGAUAAGCUUGGACUCAAACCAUCAAGUCCAGAUCGAGCA
modifications: aptamer; 2'-fluoro at CU, RNA at AG, backbone not given here
B4: 16 (nucleic acid)
chain: B3 chain with A30G, A39C, U44C
modifications: aptamer; 2'-fluoro at CU, RNA at AG, backbone not given here
B5: 25 (nucleic acid)
chain: B2 chain with U17C, G30A, C44U, U50C, A58G
modifications: aptamer; 2'-fluoro at CU, RNA at AG, backbone not given here
B6: 23 (nucleic acid)
chain: B3 chain with U16G, G17U, U38A, C58A, A59C
modifications: aptamer; 2'-fluoro at CU, RNA at AG, backbone not given here
B7: 18 (nucleic acid)
chain: B2 chain with U17C, A20C, A36G, C39A, A49U, U50C, A58G
modifications: aptamer; 2'-fluoro at CU, RNA at AG, backbone not given here
B8: 22 (nucleic acid)
chain: B2 chain with U17C, G30A, C44U, U50C, A58G
modifications: aptamer; 2'-fluoro at CU, RNA at AG, backbone not given here
B9: 17 (nucleic acid)
chain: B3 chain with U16G, G17U, U38A, C58A, A59C
modifications: aptamer; 2'-fluoro at CU, RNA at AG, backbone not given here
B10: 24 (nucleic acid)
chain: B3 chain with U35C, A37G, A40G
modifications: aptamer; 2'-fluoro at CU, RNA at AG, backbone not given here
B11: 21 (nucleic acid)
chain: GGGACAUGCGUAACUAUAUAGGGGCCUCCACAGCUGUAAAGCUUGGACUUAAACCAUAUAGAGUCCAGAUCGAGCA
modifications: 2'-fluoro at CU, RNA at AG, backbone not given here

Substitutions are numbered along the chain they refer to.

The target in one series is T1, ADAMTS5. The series is described as follows: binding activity to ADAMTS5 by surface plasmon resonance (Biacore T100). The settings on record: Table 1; 0.1 μM ADAMTS5 analyte, aptamer immobilized on SA chip. As to the method:
The binding activity of aptamers having the nucleotide sequences shown in SEQ ID NOs: 1 and 2 to ADAMTS5 was evaluated by the surface plasmon resonance method. Biacore T100 manufactured by GE Healthcare was used for the measurement. The SA chip was used as the sensor chip, which had streptavidin immobilized thereon. About 800 RU of a 16-nucleotide Poly dT with biotin at the 5′-terminal was bound on the chip. […] ADAMTS5 for analyte was prepared at 0.1 μM, and injected at a flow rate of 30 μL/min for 60 sec. As the running buffer, solution C was used. The solution C is a mixed solution of 300 mM sodium chloride, 5.4 mM potassium chloride, 1.8 mM calcium chloride, 0.8 mM magnesium chloride, 20 mM tris (pH 7.6), and 0.05% Tween20.
SEQ ID NO: 2 has a sequence with one base deletion from the continuous 4 G bases in the consensus sequence, and it was shown from the measurement results of the binding activity that the continuous 4 G bases in the consensus sequence are important for the activity of aptamers. Sensorgram showing the binding of an aptamer having the nucleotide sequence shown in SEQ ID NO: 1 to ADAMTS5 is presented in FIG. 2. In Table 1, “++” indicates those with the proportion of ADAMTS5 binding amount (RU value) to the amount of aptamer immobilized on the SA chip (RU value) of not less than 40%, “+” indicates those with the proportion of not less than 10% and less than 40%, and “−” indicates those with the proportion of less than 10%.
The binding activity and enzyme inhibitory activity of aptamers having nucleotide sequences shown in SEQ ID NOs: 16-25 to ADAMTS5 were measured. The binding activity was evaluated by the surface plasmon resonance method. For the measurement, a method similar to that in Example 1 was used. The enzyme inhibitory activity was measured by a method similar to that in Example 1. […] The negative control nucleic acid refers to the nucleic acid pool used in the first round of the SELEX method. The “++” indicates those with the proportion of ADAMTS5 binding amount (RU value) to the amount of aptamer immobilized on the SA chip (RU value) of not less than 40%, and “+” indicates those with the proportion of less than 40%. […] “n.d.” means not determined.
The binding activity of the nucleic acids shown in SEQ ID NOs: 30-45 to ADAMTS5 was measured. The binding activity was evaluated by the surface plasmon resonance method. In the Table, “++” indicates those with the proportion of ADAMTS5 binding amount (RU value) to the amount of aptamer immobilized on the SA chip (RU value) of not less than 40%, “+” indicates those with the proportion of not less than 10% and less than 40%, and “−” indicates those with the proportion of less than 10%.
B1: the “binding activity by Biacore” value is on record as “++ (proportion of ADAMTS5 binding amount (RU value) to the amount of aptamer immobilized on the SA chip (RU value) of not less than 40%)”.

Still in this series, the particulars now being: Table 7.
B2: the binding activity entry is “+ (proportion of less than 40%)”.
Same read-out and setting: the same measure for B3: “+ (proportion of less than 40%)”; for B4: “+ (proportion of less than 40%)”.
The same measure, in the same setting: the same measure for B5: “++ (proportion of ADAMTS5 binding amount (RU value) to the amount of aptamer immobilized on the SA chip (RU value) of not less than 40%)”.
Still for that read-out and setting: as for B6, the entry is “++ (proportion of ADAMTS5 binding amount (RU value) to the amount of aptamer immobilized on the SA chip (RU value) of not less than 40%)”; as for B7, “+ (proportion of less than 40%)”.
With B8, the binding activity entry is “++ (proportion of ADAMTS5 binding amount (RU value) to the amount of aptamer immobilized on the SA chip (RU value) of not less than 40%)”.
Consider B9, for which the binding activity result was “+ (proportion of less than 40%)”.
The same measure, in the same setting: the same measure for B10: “++ (proportion of ADAMTS5 binding amount (RU value) to the amount of aptamer immobilized on the SA chip (RU value) of not less than 40%)”; for B11: “++ (proportion of ADAMTS5 binding amount (RU value) to the amount of aptamer immobilized on the SA chip (RU value) of not less than 40%)”.

Still in this series, the particulars now being: surface plasmon resonance.
With B1, the “binding to ADAMTS5 (in words)” value is recorded as “binds to ADAMTS5”.

The target of a further series is T1, ADAMTS5. The series is described as follows: ADAMTS5 enzyme inhibition, aggrecan G1-IGD-G2 cleavage, SDS-PAGE detection (evaluation method 1). The settings on record: Table 2; mean of four measurements; 5 nM ADAMTS5, 50 μg/mL substrate; read-out: IC50, inhibitory activity against ADAMTS5. Type of series: biochemical. On the procedure: Whether an aptamer having the nucleotide sequence shown in SEQ ID NO: 1 inhibits the enzyme activity of ADAMTS5 was evaluated by the following method. As a substrate of ADAMTS5, the G1-IGD-G2 domain of aggrecan (manufactured by R&D systems) was used. ADAMTS5 specifically cleaves in between the 392nd glutamic acid and the 393rd alanine in the G1-IGD-G2 domain and produces two fragments. These fragments have faster electrophoretic mobility than uncleaved G1-IGD-G2. Thus, the enzyme activity of ADAMTS5 can be measured by quantifying the band intensity of G1-IGD-G2 by SDS-PAGE electrophoresis. The assay was performed in a solution A buffer with a reaction mixture volume of 10 μL. First, a mixture (10 μL) of a nucleic acid and ADAMTS5 was prepared and incubated at 25° C. for 15 min. To a substrate solution (5 μL) diluted with solution A was added a mixture (5 μL) of the nucleic acid and ADAMTS5 to start the enzyme reaction. The final concentration of ADAMTS5 in the reaction solution was 5 nM, and the final substrate concentration was 50 μg/mL. The reaction solution was incubated at 37° C. for 2 hr, 2 μL of solution D was added, and the mixture was heated at 95° C. for 2 min to stop the enzyme reaction of ADAMTS5. Solution D contains 0.25 M tris (pH 6.8), 10% SDS, 50% glycerol, 0.25% bromo phenolblue, and 20% 2-mercaptoethanol. The heat-treated reaction solution was electrophoresed by 7.5% SDS-PAGE and stained with SYPRO Orange (manufactured by Sigma-Aldrich). The staining was performed according to the manual of Sigma-Aldrich and detected using STORM840 manufactured by GE Healthcare. For analytical curves, uncleaved substrates 1000 ng, 400 ng, 160 ng, 64 ng, 25.6 ng, 10.24 ng, and 4.1 ng were electrophoresed, and staining and detection were performed in the same manner. The amount of uncleaved substrate in each reaction solution was quantified from the band intensity and the standard curve. The substrate cleavage efficiency of ADAMTS5 under these reaction conditions was 80-100%. The inhibition rate of the test substance was calculated using the following equation. inhibition rate (%)=(Sapt−SE)/(S0−SE)×100 wherein Sapt is the amount of an uncleaved substrate with the addition of a test substance, SE is the residual amount of an uncleaved substrate with the addition of ADAMTS5, and S0 is the residual amount of an uncleaved substrate without the addition of ADAMTS5.
The concentration of an inhibitor necessary for inhibiting 50% of the enzyme activity (IC50) was determined. IC50 is a mean of four measurements.
Broadly, the IC50 is the concentration that gives 50% inhibition. For B1, the IC50 is 16.8 ± 2.8 nM.

Staying with this series, now noted: Table 7; 10 nM aptamer.
On to B2, for which the “inhibitory activity % 10 nM aptamer” value is 15.5%.
The same measure, in the same setting: the same measure for B3: 2.9%; for B4: 46.3%.
Regarding B6, the “inhibitory activity % 10 nM aptamer” value is 14.5%.
Same read-out and setting: as for B7, the figure is 2.9%; as for B8, 14.8%; as for B9, 12.3%.
The same measure, in the same setting: as for B10, the figure is 20.2%.
Same read-out and setting: as for B11, the figure is 56.9%.

The series is the same for the next values; noted with them: Table 7; 20 nM aptamer.
On to B5, for which the “inhibitory activity % 20 nM aptamer” value was 72.1%.

Still in this series, the particulars now being: Table 7; 30 nM aptamer.
For the molecule B2, the “inhibitory activity % 30 nM aptamer” value is reported as 111.1%.
Turning to B3, the “inhibitory activity % 30 nM aptamer” value was 93.5%.
Same read-out and setting: the same measure for B4: 93.6%; for B7: 90.4%; for B9: 88.2%.

Still in this series, the particulars now being: Table 8; 30 nM aptamer.
Regarding B11, the “inhibitory activity % 30 nM aptamer” value was 78.8%.
